Results published in the DeepSol protein solubility set.

Assay: soluble on expression in E. coli; label from the status in PepcDB or PDB records

Sequence | soluble on expression in E. coli
MGSDKIHHHHHHMKPHTLLIVDDDDTVAEMLELVLRGAGYEVRRAASGEEALQQIYKNLPDALICDVLLPGIDGYTLCKRVRQHPLTKTLPILMLTAQGDISAKIAGFEAGANDYLAKPFEPQELVYRVKNILARTTIETPTTPVQRGKVITVFGAKGGVGKTTIAVSVALALRLRSRRRVVIVDADLTFGDVAVHLNIAPTRSIIDIVRSGDEIEQEMVKQVLLSHPSGLQALLAPPRPEEAELVSAEHMTRILDLLAVNADYVVVDCQTSYDDRTLSVFDRTDHVLLVITPEIGPLKNTSLFLSLANQLGIDPRAISIVLNRSNSGVGIGVNEIERVLRRKINYHVMSGGQPVVTAVNRGTPLILEQPKHPFVQQILYLADQMMKQLDTNQNVQTDTVTR | not soluble
MTSRKAKESAHMSASDIISTFNDFFTNFPANKSFDMTYKVYLKDLADADEELTSSRRNSELNLTENKPITIASCGFVPQMMSSSTVKNLSLSSSATNFNSEKSEIGSKITMNPAKQVLKGRNTRKKRSMVDLSQINKIFGRDYNPPAPSSKSPPTIYVNLGVIYSSSSSHASDASSISSHTSVSSTFTEKQHEFGKLVPSGTDGSLELFVKVADCFD | not soluble
MAHHHHHHMTEYALSLYVTLPSSFPKAAPRATMPYCCHNVPITPPNINPSEALAYQWSSTTSTLVEAVRNAFQNAADCWGPVEPPSMRSVTLQLSGETDRLLQDLVTNPNCLDAYCYQLPIVKLMREASRHTVSEIERVANENTTLRNEVETLEAQVKDLQRYLDEQVSQLQQLEQNRLLLSVGTPEALIKTLEDDVRRMSSDCMTLGRRALDAYKADKGGFQDLLKQYKAQSKATHMLDLKRLSYRAQCAAS | not soluble
EVQLQQSGAELVRPGASVKLSCTASGFNIKDDFMHWVKQRPEQGLEWIGRIDPANDNTKYAPKFQDKATIIADTSSNTAYLQLSSLTSEDTAVYYCARREVYSYYSPLDVWGAGTTVTVPSGS | soluble
MGHDLADIKKSFEASLPGYVEKKDPKSILPQPGKRNILITAALPYVNNVPHLGNIIGCVLSADVFARYCNLRGHQTFYVGGTDEYGTATETKALQEGCTPRELCDKYHAIHKGIYEWFGIDFSHFGRTTTDHQTEICQDMFLKLHKNGYTSSQSVDQLYCNQCEKFLADRFVTGTCPMCAYDDARGDQCDGCGKLINAVDLKDAKCHMCKATPEVKQSTHIFLSLDKLQQKTTEHLDRELAKEDNRWSSNAVGITKAWMKLGLDPRCITRDLKWGTAVPLDGFEKKVFYVWFDAPIGYLSITKCVLGDNWTKWWKNPENVELFNFVGKDNVAFHAVMFPCSQLGANDNYTVVNNLCATEYLNYEDTKFSKSRGTGIFGDAAQGTEIPADIWRFYLLYMRPESQDTAFSWDDFVLKVNSELLNNLGNFINRALSFVANSFGGVVPEMNLTNDDAEVLSEIHNECMQWDKQFDGVHLKDAVKTILNVSRLGNQYMQAQTPWVLMKKDEEGKKRAGTIIGVAANIAYHVSVLLYPIMPTISATIREQCGLPALPLFTPFPICYLKAGHKIGQPSPLFQKLDPAQIAEFKAKFGGSQDAQSSAPKTAEKPKQQKKQAPTKDKKGDKKMASTAAFVELEQGAKVISQLIAQNLKKFDQAKALFTRNQLQRLDGENKQLTIDVKTLQHQLIELETAAGIKQVPKPVVSCTPTPTSTPASGIITEAPKKEAPSTPAPSEPKKAKEQKKGKGGAAAAPVDDTIDVGRLDMRVGRIIKCEKHPDADALYVEQIDVGESAPRTVVSGLVRHVPLDQMQNRLVVVLCNLKPAKMRGVESRAMVMCASSPDKVEIMEVPADSKPGTPVVCPPYTHRPDEQLNPKKKIWETVAEDLKVSAEGFAEWKGQPLLIGSESKMTAPTLRGVHVK | not soluble
MSLLKISGKFFDEDNVDNLIVLRQSIKELADNGFRVGIVTGGGSTARRYIKLAREIGIGEAYLDLLGIWASRLNAYLVMFSLQDLAYMHVPQSLEEFIQDWSHGKVVVTGGFQPGQSTAAVAALVAEASSSKTLVVATNVDGVYEKDPRIYADVKLIPHLTTQDLRKILEGSQSVQAGTYELLDPLAIKIVERSKIRVIVMNYRKLNRIIDILKGEEVSSIIEPVEGHHHHHH | not soluble
MCGIFAYLNFLAPKKRSEIVDILVQGLQRMEYRGYDSAGIAIDGSNDIENPHSKIALLRKRGKVSVLNDYIKENNEKLNMDMEYNIHCGIAHTRWATHGSPRDVNSHPHRSNDNNEFLVVHNGIITNYREIKEYLEKKGHKFESETDTEVIAKLTQHVHDRYPDFSFRQLVETVIQQLEGAFALAFKSSRFPGQLVASRRGSPLLVGIKSNSTLHTSHFPVSYSKGRCFMSNNATHLREETSFVETPNNILDLSIAVRNPSGSAKLPDNNSTTRPFDSTDFEVEYFIASDAAAIIEHTKQVLFLEDDDVAFVEDGSLTIHRISRHADSGEQKREVQLLELEIQEIMKGSYKTFMQKEIFEQPESVVNTMRGRVLPSGQVVLGGLKEYLPAIKRCRRLIMVACGTSYHSAIACRQVLEELSELPVVVELASDFLDRETPIFRNDVCLFISQSGETADTLMALRYCKPRGALTIGVTNTVGSSIGRESHCGIHINAGPEIGVASTKAYTSQIVSLLLFALTISEDRISKMKRRAEIIDALNNLPILIRDVLDLDDQVLKIAEQIYKDKSLLIMGRGLNFATCLEGALKIKELSYMHCEGIMSGELKHGPLAMVDEFLSICMVVCNDHVYKKSLNALQQVVARKGAPIIIADSSVPESDLAGMKHVLRVPRTVDCVQNILTVIPLQLLSYHIAELNGANVDRPRNLAKSVTVE | not soluble
MGSDKIHHHHHHMDIRVLRYFVVIAQEQNISRAATLLNVSQPALSRQIADLEDELGTKLFTRAHRHIQLTQEGHYLLERALQIIGLVDKTTYNLQKQDVVSGTLDIGAGESVGIMPVMEAAQQIMRQYPDVRVNLRSADAEPILADLDAGILEFGIIMGNRPLNNYNTLVLPAKNHWCAIMRADEPLAQQKEIRPIDLVGRPLITSRQAYKHGLFQKWSNTLYDQLNFVGTFNLAFNGSLLVKTGAAIALLYDQLVDVSPTSGLVARPLNPDMSEANTLIWSKNRNLPNLNRLFLDTLQKNLAQQGGSDA | not soluble
LTAGKVDIPTPDGKMPAYRAAPAGKKDLPTLLVVSEIFGVHEYIQDVCRRLARLGYQAVAPELFARYGDPTGYTDIGRLRAEVVDKAGDRQVLADLDAAAAWAAANGGNSSRLGILGFCWGGRIVWLYAAHNPGLKAGAAWYGQLGGQASELKPRSVLESIGDLKAPVLGAYGGKDAGIPLSDVDRMRLALAKGPRAARDSRIDVYPEAPHAFHADYRPSYRKAEAEQAWQRMLDWFGQH | not soluble
MAANSLPQDISDVELVHLARAAMKRAHCPYSKFPVGAALLTESGEIVQGCNVENASYGGTICAERSAIVSAVSQGYTKFRAIAVVTELSEPASPCGLCRQFLVEFGDYKVVVGTASNNKILITSTRALLPFAFTPESLDTFEQEKASEAKGLKQDDATEHNVTVVS | not soluble
MGSDKIHHHHHHMDIRSLKMYLHLCDSLHFAKTAEQSHVSPSTLSRALQRLEDEVGSKLFDRDNRSVTITHAGVEFKRFAEQTLSEWTQLRSRIDPSQQFLRGNLNLYCSVTAAYSHLPALLDRFRREHPHVDINLNTGDPANAVNQIQKNRADIAIIALPEAFPSSLHFTPIDKVPISVIAPTIQCQVQQWVSQAKIDWAKLPYIVPDHGPGRKRIDLWFKQMGIKPNIYAQVSGQEAIVSMVALGCGVGISPEAVIHNSPVRDRIQTLASPIPIPPFELGCCCKEKRTNDPIIRAFLDII | not soluble
MGSDKIHHHHHHMEEEAIVPEVLLDKAIELGLSFTGSTFPISIFPSEIRNIIAEVHECQGFPIDYIASAMLVAIAVGIGNTHLAELKRGWQESTMLYVALVGRPGTNKSHPLSFAMKPFLDFDYQENKLYERSYAEYDNIMRMNRKERIEGGFPDQPTEPMRKRFLVSDITPEGLSFIHAQNKRGLCLWTDELSAWFKNFNRYNSGSEEQFWLSVFSAKATISDRKGNRSSIFIKRPYISVVGTIQKKILGELSKGERSSNGFIDRILFVMPNLQQKARWSRTELPDDTEKRWGGIIRRLIDLPCAKDEEGEVTPEIIPFEEDAKARLYMWQEEHARLCDTEANEVLVGVYCKLEIYIIRFCLIIQLARWVCGESEKSAIDLTSVERAITLTEYFRHSAQQVHAEIAGVQLTQQQQQLLAELPASFQTAEALSIAQKLGMKERAFKDFLSRNIGHLFAKERHGLYHKLNM | not soluble
